From PMC10673995, “Discovery of a novel cardiac-specific myosin modulator using artificial intelligence-based virtual screening” (Nature Communications, 2023) come the findings set out here.

This assay has as its target Rabbit skeletal F-actin (rabbit), P68135.

B1: bovine β-cardiac myosin S1, Q9BE39 1-1935; P85100 1-199 (domain or fragment)
heavy: MVDAEMAAFGEAAPYLRKSEKERLEAQTRPFDLKKDVFVPDDKEEFVKATILSREGGKVTAETEHGKTVTVKEDQVLQQNPPKFDKIEDMAMLTFLHEPAVLYNLKERYASWMIYTYSGLFCVTINPYKWLPVYNAEVVAAYRGKKRSEAPPHIFSISDNAYQYMLTDRENQSILITGESGAGKTVNTKRVIQYFAVIAAIGDRSKKEQATGKGTLEDQIIQANPALEAFGNAKTVRNDNSSRFGKFIRIHFGATGKLASADIETYLLEKSRVIFQLKAERDYHIFYQILSNKKPELLDMLLITNNPYDYAFISQGETTVASIDDAEELMATDNAFDVLGFTTEEKNSMYKLTGAIMHFGNMKFKLKQREEQAEPDGTEEADKSAYLMGLNSADLLKGLCHPRVKVGNEYVTKGQNVQQVVYAKGALAKAVYERMFNWMVTRINATLETKQPRQYFIGVLDIAGFEIFDFNSFEQLCINFTNEKLQQFFNHHMFVLEQEEYKKEGIEWEFIDFGMDLQACIDLIEKPMGIMSILEEECMFPKATDMTFKAKLFDNHLGKSSNFQKPRNIKGKPEAHFSLIHYAGTVDYNIIGWLQKNKDPLNETVVDLYKKSSLKMLSSLFANYAGFDTPIEKGKGKAKKGSSFQTVSALHRENLNKLMTNLRSTHPHFVRCIIPNETKSPGVIDNPLVMHQLRCNGVLEGIRICRKGFPNRILYGDFRQRYRILNPAAIPEGQFIDSRKGAEKLLGSLDIDHNQYKFGHTKVFFKAGLLGLLEEMRDERLSRIITRIQAQSRGVLSRMEFKKLLERRDSLLIIQWNIRAFMGVKNWPWMKLYFKIKPLLKSAETEKEIALMKEEFGRLKEALEKSEARRKELEEKMVSLLQEKNDLQLQVQAEQDNLADAEERCDQLIKNKIQLEAKVKEMTERLEDEEEMNAELTAKKRKLEDECSELKRDIDDLELTLAKVEKEKHATENKVKNLTEEMAGLDEIIAKLTKEKKALQEAHQQALDDLQAEEDKVNTLTKAKVKLEQHVDDLEGSLEQEKKVRMDLERAKRKLEGDLKLTQESIMDLENDKQQLDERLKKKDFELNALNARIEDEQALGSQLQKKLKELQARIEELEEELEAERTARAKVEKLRSDLSRELEEISERLEEAGGATSVQIEMNKKREAEFQKMRRDLEEATLQHEATAAALRKKHADSVAELSEQIDNLQRVKQKLEKEKSEFKLELDDVTSNMEQIIKAKANLEKMCRTLEDQMNEHRSKAEETQRSVNDLTSQRAKLQTENGELSRQLDEKEALISQLTRGKLTYTQQLEDLKRQLEEEVKAKNALAHALQSARHDCDLLREQYEEETEAKAELQRVLSKANSEVAQWRTKYETDAIQRTEELEEAKKKLAQRLQDAEEAVEAVNAKCSSLEKTKHRLQNEIEDLMVDVERSNAAAAALDKKQRNFDKILAEWKQKYEESQSELESSQKEARSLSTELFKLKNAYEESLEHLETFKRENKNLQEEISDLTEQLGSSGKTIHELEKVRKQLEAEKLELQSALEEAEASLEQEEGKILRAQLEFNQIKAEMERKLAEKDEEMEQAKRNHLRVVDSLQTSLDAETRSRNEALRVKKKMEGDLNEMEIQLSHANRLAAEAQKQVKSLQSLLKDTQIQLDDAVRANDDLKENIAIVERRNNLLQAELEELRAVVEQTERSRKLAEQELIETSERVQLLHSQNTSLINQKKKMEADLSQLQTEVEEAVQECRNAEEKAKKAITDAAMMAEELKKEQDTSAHLERMKKNMEQTIKDLQHRLDEAEQIALKGGKKQLQKLEARVRELENELEAEQKRNAESVKGMRKSERRIKELTYQTEEDRKNLLRLQDLVDKLQLKVKAYKRQAEEAEEQANTNLSKFRKVQHELDEAEERADIAESQVNKLRAKSRDIGTKGLNEE
light: not shown
As to B1, the F-actin concentration dependence of the steady-state ATPase activity of bovine β-cardiac myosin S1 (NADH-coupled assay), Kapp in the absence and in the presence of 100 μmol/L F10 turned out to be 20 µmol/L.
